Consider 1 substance from patent publication US20120028894A1.

The experiment has as its target Insulin-Degrading Enzyme (IDE), species not stated (Homo sapiens (Human)) (UniProt P14735). The experiment is described as follows: cell-based or functional assay.

Substance “Insulin isolated from bovine pancreas (SIGMA) (from UniProt P01317 85-105; P01317 25-54) (ligand)” returned an insulin degradation by IDE without inhibitor, 16 hours at 37 C, insulin ELISA (% degradation) of 60.
